Assay results as given in patent publication US20250075002A1.
Each block holds one substance with its values, some of them ahead of it.

What was measured:
[1] = target: MUC1 as expressed on normal activated human T cells (human) (UniProt P15941); experiment: FACS, PHA-L-activated human PBMC, live αβTCR+ gate, Donor 191271003C; antibody 10 µg/mL by paragraph 182
[2] = target: MUC1 as expressed on normal activated human T cells (human) (UniProt P15941); experiment: FACS, PHA-L-activated human PBMC, live αβTCR+ gate, Donor 191271715C; antibody 10 µg/mL by paragraph 182
[3] = target: MUC1 as expressed on normal activated human T cells (human) (UniProt P15941); experiment: FACS, PHA-L-activated human PBMC, live αβTCR+ gate, Donor 3009223; antibody 10 µg/mL by paragraph 182
[4] = target: MUC1 as expressed on normal activated human T cells (human) (UniProt P15941); experiment: FACS, PHA-L-activated human PBMC, live αβTCR+ gate, Donor 190980805C; antibody 10 µg/mL by paragraph 182
[5] = target: MUC1 as expressed on normal activated human T cells (human) (UniProt P15941); experiment: FACS, PHA-L-activated human PBMC, live αβTCR+ gate, Donor 191180405C; antibody 10 µg/mL by paragraph 182
[6] = target: MUC1 as expressed on normal activated human T cells (human) (UniProt P15941); experiment: FACS, PHA-L-activated human PBMC, live αβTCR+ gate, Donor 3011029; antibody 10 µg/mL by paragraph 182
[7] = target: human CD16A (V158) on NK92mi cells (human) (UniProt P08637); experiment: flow cytometry on NK92mi/CD16A cells (V158 by paragraph 201); control
[8] = target: human CD16B (NA2) on NK92mi cells (human) (UniProt O75015); experiment: flow cytometry on NK92mi/CD16B (NA2) cells; control
[9] = target: human CD16B (NA1) on NK92mi cells (human) (UniProt O75015); experiment: flow cytometry on NK92mi/CD16B (NA1) cells; control
[10] = target: MUC1 as expressed on normal activated human T cells (human) (UniProt P15941); experiment: FACS, PHA-L-activated human PBMC, live αβTCR+ gate, Donor 3009223; concentration of the isotype control not told
[11] = target: MUC1 as expressed on normal activated human T cells (human) (UniProt P15941); experiment: FACS, PHA-L-activated human PBMC, live αβTCR+ gate, Donor 191271715C; concentration of the isotype control not told
[12] = target: MUC1 as expressed on normal activated human T cells (human) (UniProt P15941); experiment: FACS, PHA-L-activated human PBMC, live αβTCR+ gate, Donor 191180405C; concentration of the isotype control not told
[13] = target: MUC1 as expressed on normal activated human T cells (human) (UniProt P15941); experiment: FACS, PHA-L-activated human PBMC, live αβTCR+ gate, Donor 191271003C; concentration of the isotype control not told
[14] = target: MUC1 as expressed on normal activated human T cells (human) (UniProt P15941); experiment: as above; remark: listed apart in the source
[15] = target: MUC1 as expressed on normal activated human T cells (human) (UniProt P15941); experiment: FACS, PHA-L-activated human PBMC, live αβTCR+ gate, Donor 3011029; concentration of the isotype control not told
[16] = target: MUC1 as expressed on normal activated human T cells (human) (UniProt P15941); experiment: FACS, PHA-L-activated human PBMC, live αβTCR+ gate, Donor 190980805C; concentration of the isotype control not told
[17] = target: MUC1 as expressed on normal activated human T cells (human) (UniProt P15941); experiment: FACS, PHA-L-activated human PBMC, live αβTCR+ gate, Donor 191271715C; concentration of the isotype control not told; remark: listed apart in the source
[18] = target: MUC1 as expressed on normal activated human T cells (human) (UniProt P15941); experiment: FACS, PHA-L-activated human PBMC, live αβTCR+ gate, Donor 190980805C; concentration of the isotype control not told; remark: listed apart in the source
[19] = target: MUC1 as expressed on normal activated human T cells (human) (UniProt P15941); experiment: FACS, PHA-L-activated human PBMC, live αβTCR+ gate, Donor 3011029; concentration of the isotype control not told; remark: listed apart in the source
[20] = target: MUC1 as expressed on normal activated human T cells (human) (UniProt P15941); experiment: FACS, PHA-L-activated human PBMC, live αβTCR+ gate, Donor 191180405C; concentration of the isotype control not told; remark: listed apart in the source
[21] = target: MUC1 as expressed on normal activated human T cells (human) (UniProt P15941); experiment: FACS, PHA-L-activated human PBMC, live αβTCR+ gate, Donor 3009223; concentration of the isotype control not told; remark: listed apart in the source

MUC1 as expressed on normal activated human T cells (human), sequence (P15941 24-1255): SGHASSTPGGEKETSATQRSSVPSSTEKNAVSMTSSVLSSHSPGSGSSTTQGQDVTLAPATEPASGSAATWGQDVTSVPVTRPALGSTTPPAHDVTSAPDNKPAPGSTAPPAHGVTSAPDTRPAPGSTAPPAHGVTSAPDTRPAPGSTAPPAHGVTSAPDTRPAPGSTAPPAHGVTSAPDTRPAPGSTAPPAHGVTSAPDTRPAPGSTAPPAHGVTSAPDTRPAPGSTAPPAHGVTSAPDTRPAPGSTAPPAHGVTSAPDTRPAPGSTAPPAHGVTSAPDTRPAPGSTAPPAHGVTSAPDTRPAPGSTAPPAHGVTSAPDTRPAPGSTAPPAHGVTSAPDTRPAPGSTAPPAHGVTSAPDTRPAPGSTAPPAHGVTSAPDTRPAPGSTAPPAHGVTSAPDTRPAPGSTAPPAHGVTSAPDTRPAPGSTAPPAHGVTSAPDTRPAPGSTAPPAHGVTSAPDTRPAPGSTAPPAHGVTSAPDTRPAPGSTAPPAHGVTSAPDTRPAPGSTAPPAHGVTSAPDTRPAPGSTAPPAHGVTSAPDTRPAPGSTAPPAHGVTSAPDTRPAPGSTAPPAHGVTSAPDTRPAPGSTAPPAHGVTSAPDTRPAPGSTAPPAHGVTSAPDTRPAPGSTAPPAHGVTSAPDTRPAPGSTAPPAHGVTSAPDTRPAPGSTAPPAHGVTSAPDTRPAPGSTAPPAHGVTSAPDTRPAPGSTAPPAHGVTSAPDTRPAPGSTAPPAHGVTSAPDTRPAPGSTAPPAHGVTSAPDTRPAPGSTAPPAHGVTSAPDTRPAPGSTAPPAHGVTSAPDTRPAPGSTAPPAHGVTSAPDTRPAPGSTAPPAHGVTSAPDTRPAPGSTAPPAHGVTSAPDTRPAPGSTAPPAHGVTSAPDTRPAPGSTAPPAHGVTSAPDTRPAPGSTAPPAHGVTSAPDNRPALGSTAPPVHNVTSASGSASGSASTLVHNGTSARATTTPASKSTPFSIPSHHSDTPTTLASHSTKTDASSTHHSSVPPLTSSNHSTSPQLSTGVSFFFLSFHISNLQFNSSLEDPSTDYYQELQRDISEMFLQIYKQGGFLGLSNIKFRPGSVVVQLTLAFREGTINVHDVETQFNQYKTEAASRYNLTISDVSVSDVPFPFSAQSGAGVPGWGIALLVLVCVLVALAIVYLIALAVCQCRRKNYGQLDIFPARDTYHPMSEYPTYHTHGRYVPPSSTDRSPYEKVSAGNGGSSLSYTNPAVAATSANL
human CD16A (V158) on NK92mi cells (human), sequence (P08637 17-254 F176V limits assumed): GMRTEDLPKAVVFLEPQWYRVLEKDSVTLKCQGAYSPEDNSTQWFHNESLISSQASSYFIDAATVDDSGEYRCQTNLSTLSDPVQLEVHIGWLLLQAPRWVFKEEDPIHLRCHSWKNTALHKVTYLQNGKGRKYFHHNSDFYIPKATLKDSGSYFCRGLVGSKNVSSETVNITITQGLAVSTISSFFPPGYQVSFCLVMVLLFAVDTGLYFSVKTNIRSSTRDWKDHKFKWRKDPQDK
human CD16B (NA2) on NK92mi cells (human), sequence (O75015 17-200 N65S limits assumed): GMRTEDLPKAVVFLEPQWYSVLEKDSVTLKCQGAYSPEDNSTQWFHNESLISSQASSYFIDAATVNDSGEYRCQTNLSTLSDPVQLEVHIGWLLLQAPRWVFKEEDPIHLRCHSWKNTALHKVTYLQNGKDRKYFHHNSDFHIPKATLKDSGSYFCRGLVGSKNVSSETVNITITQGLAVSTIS
human CD16B (NA1) on NK92mi cells (human), sequence (O75015 other isoform, or with tags, fused parts or gaps limits assumed): as the sequence (O75015 17-200 N65S limits assumed) above, with S20R, S49N, N66D, I90V counted along it

percent of αβTCR+ cells in the MUC1-positive gate (dashed box) [1]: 16.9%
percent of αβTCR+ cells in the MUC1-positive gate (dashed box) [2]: 16.5%
Substance: 16A (Biolegend, cat. #355608) (antibody)

percent of αβTCR+ cells in the MUC1-positive gate (dashed box) [3]: 10%
percent of αβTCR+ cells in the MUC1-positive gate (dashed box) [4]: 28.2%
percent of αβTCR+ cells in the MUC1-positive gate (dashed box) [5]: 28.1%
percent of αβTCR+ cells in the MUC1-positive gate (dashed box) [6]: 23.2%
Substance: HMFG1 (Abcam, cat. #ab215670) (antibody)

EC50 [7]: 0.0112 µg/mL
EMAX [7]: 7.55
EC50 [8]: 0.314 µg/mL
EMAX [8]: 7.66
EC50 [9]: 10.3 µg/mL
EMAX [9]: 7.46
Substance: Human IgG (control column of Tables 10-12) (antibody)

percent of αβTCR+ cells in the MUC1-positive gate (dashed box) [10]: 1.17%
percent of αβTCR+ cells in the MUC1-positive gate (dashed box) [11]: 0.04%
percent of αβTCR+ cells in the MUC1-positive gate (dashed box) [12]: 2.49%
percent of αβTCR+ cells in the MUC1-positive gate (dashed box) [13]: 0.91%
percent of αβTCR+ cells in the MUC1-positive gate (dashed box) [14]: 0.11%
percent of αβTCR+ cells in the MUC1-positive gate (dashed box) [15]: 0.26%
percent of αβTCR+ cells in the MUC1-positive gate (dashed box) [16]: 1.86%
percent of αβTCR+ cells in the MUC1-positive gate (dashed box) [17]: 1.04%
percent of αβTCR+ cells in the MUC1-positive gate (dashed box) [18]: 0.15%
percent of αβTCR+ cells in the MUC1-positive gate (dashed box) [19]: 0.36%
percent of αβTCR+ cells in the MUC1-positive gate (dashed box) [20]: 0.29%
percent of αβTCR+ cells in the MUC1-positive gate (dashed box) [21]: 0.05%
Substance: Isotype (antibody)
